This passage reports initial Kd (bivalent cooperativity model) and Kd results from paper PMC2115537.

The experiment concerns the target F-actin (rabbit skeletal muscle actin filaments) (rabbit) (UniProt P68135). In words: co-sedimentation.

“29-kD NH2-terminal fragment of synapsin I (domain or fragment)” registered an initial Kd (bivalent cooperativity model) of 168000 nM. Broadly, the Kd is a measure of binding affinity in units of concentration. The low end stands for higher affinity, the high end for lower affinity. Substance “40-kD NH2-terminal/middle fragment of synapsin I (domain or fragment)” displayed a Kd of 1300 nM. Same read-out and setting: for “dephosphorylated 51/54-kD middle/tail fragment of synapsin I (domain or fragment)” the value was 600 nM; for “phosphorylated 51/54-kD middle/tail fragment of synapsin I (domain or fragment)”, 1700 nM.
